{"source": "patent US20110319287A1", "about": "“MODULATOR ASSAY” (ADDEX PHARMA S.A., priority 2009, published 2011)", "assay_in_all_cases": "cell-based or functional assay", "key": {"[1]": {"target": "Recombinant Human TL1A/TNFSF15 (R&D Systems, Cat N° 1319-TL) (human) (UniProt O95150)", "sequence (O95150 72-251 limits assumed)": "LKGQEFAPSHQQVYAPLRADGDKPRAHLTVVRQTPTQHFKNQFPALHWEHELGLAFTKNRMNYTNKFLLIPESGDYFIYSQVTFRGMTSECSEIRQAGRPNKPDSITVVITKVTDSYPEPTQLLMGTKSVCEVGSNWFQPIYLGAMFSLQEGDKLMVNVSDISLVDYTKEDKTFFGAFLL"}, "[2]": {"target": "DR3 receptor expressed in HeLa TRADD DR3 cells (Homo sapiens (Human)) (UniProt Q93038)", "sequence (Q93038 other isoform, or with tags, fused parts or gaps, form in doubt)": "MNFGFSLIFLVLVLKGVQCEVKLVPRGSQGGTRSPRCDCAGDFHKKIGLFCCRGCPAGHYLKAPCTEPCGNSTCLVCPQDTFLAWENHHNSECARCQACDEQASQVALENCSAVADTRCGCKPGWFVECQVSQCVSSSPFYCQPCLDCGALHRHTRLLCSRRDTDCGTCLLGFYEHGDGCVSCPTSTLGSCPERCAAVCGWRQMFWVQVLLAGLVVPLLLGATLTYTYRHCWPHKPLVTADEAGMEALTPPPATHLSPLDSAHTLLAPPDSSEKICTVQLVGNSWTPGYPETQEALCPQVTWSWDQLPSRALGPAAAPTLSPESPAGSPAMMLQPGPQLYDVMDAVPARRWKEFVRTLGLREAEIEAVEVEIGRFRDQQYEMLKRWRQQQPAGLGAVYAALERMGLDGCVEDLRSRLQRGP"}, "[3]": {"target": "recombinant human TNF-α (Peprotech, Cat N° 300-01A) (human) (UniProt P01375)", "sequence (P01375 77-233 limits assumed)": "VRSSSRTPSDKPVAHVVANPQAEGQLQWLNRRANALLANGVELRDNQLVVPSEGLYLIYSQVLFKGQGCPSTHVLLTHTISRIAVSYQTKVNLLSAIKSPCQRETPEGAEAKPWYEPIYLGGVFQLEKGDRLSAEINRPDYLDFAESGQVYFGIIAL"}}}
{"substance": "Recombinant Human DcR3/TNFRSF6B/Fc Chimera, CF (R&D Systems, Cat N° 142-DC) (from UniProt O95407 30-300) (Fc fusion)", "values": [{"measurement": "IC50 of inhibition of TL1A-induced TRADD-EYFP relocalisation in HeLa TRADD DR3 cells (300 ng/ml TL1A, FIG. 17)", "setting": "[1]", "value": 1.41, "unit": "µg/mL"}]}
{"substance": "Recombinant Human TL1A/TNFSF15 (R&D Systems, Cat N° 1319-TL) (from UniProt O95150 72-251) (ligand)", "values": [{"measurement": "EC50 of TL1A-induced relocalisation of TRADD-EYFP in HeLa TRADD DR3 cells (FIG. 17)", "setting": "[2]", "value": 0.0043, "unit": "µg/mL"}]}
{"substance": "etanercept (Enbrel®, from Amgen, Inc.) (Fc fusion)", "values": [{"measurement": "IC50 of inhibition of TNF-induced TRADD-EYFP relocalisation in HeLa TRADD DR3 cells (100 ng/ml TNF, FIG. 19)", "setting": "[3]", "value": 0.0538, "unit": "µg/mL"}, {"measurement": "IC50 of inhibition of TNF-induced relocalisation of TRADD-EYFP (TNF dose 300 ng/ml, FIG. 9)", "setting": "[3]", "value": 2740, "unit": "nM"}]}
